# In IntAct's records for PubMed 26308901:
# B1: Somatic embryogenesis receptor kinase 2 (Arabidopsis thaliana (Mouse-ear cress)), Q9XIC7 (parent)
# chain: MGRKKFEAFGFVCLISLLLLFNSLWLASSNMEGDALHSLRANLVDPNNVLQSWDPTLVNPCTWFHVTCNNENSVIRVDLGNADLSGQLVPQLGQLKNLQYLELYSNNITGPVPSDLGNLTNLVSLDLYLNSFTGPIPDSLGKLFKLRFLRLNNNSLTGPIPMSLTNIMTLQVLDLSNNRLSGSVPDNGSFSLFTPISFANNLDLCGPVTSRPCPGSPPFSPPPPFIPPPIVPTPGGYSATGAIAGGVAAGAALLFAAPALAFAWWRRRKPQEFFFDVPAEEDPEVHLGQLKRFSLRELQVATDSFSNKNILGRGGFGKVYKGRLADGTLVAVKRLKEERTPGGELQFQTEVEMISMAVHRNLLRLRGFCMTPTERLLVYPYMANGSVASCLRERPPSQLPLAWSIRQQIALGSARGLSYLHDHCDPKIIHRDVKAANILLDEEFEAVVGDFGLARLMDYKDTHVTTAVRGTIGHIAPEYLSTGKSSEKTDVFGYGIMLLELITGQRAFDLARLANDDDVMLLDWVKGLLKEKKLEMLVDPDLQSNYTEAEVEQLIQVALLCTQSSPMERPKMSEVVRMLEGDGLAEKWDEWQKVEVLRQEVELSSHPTSDWILDSTDNLHAMELSGPR
# partner: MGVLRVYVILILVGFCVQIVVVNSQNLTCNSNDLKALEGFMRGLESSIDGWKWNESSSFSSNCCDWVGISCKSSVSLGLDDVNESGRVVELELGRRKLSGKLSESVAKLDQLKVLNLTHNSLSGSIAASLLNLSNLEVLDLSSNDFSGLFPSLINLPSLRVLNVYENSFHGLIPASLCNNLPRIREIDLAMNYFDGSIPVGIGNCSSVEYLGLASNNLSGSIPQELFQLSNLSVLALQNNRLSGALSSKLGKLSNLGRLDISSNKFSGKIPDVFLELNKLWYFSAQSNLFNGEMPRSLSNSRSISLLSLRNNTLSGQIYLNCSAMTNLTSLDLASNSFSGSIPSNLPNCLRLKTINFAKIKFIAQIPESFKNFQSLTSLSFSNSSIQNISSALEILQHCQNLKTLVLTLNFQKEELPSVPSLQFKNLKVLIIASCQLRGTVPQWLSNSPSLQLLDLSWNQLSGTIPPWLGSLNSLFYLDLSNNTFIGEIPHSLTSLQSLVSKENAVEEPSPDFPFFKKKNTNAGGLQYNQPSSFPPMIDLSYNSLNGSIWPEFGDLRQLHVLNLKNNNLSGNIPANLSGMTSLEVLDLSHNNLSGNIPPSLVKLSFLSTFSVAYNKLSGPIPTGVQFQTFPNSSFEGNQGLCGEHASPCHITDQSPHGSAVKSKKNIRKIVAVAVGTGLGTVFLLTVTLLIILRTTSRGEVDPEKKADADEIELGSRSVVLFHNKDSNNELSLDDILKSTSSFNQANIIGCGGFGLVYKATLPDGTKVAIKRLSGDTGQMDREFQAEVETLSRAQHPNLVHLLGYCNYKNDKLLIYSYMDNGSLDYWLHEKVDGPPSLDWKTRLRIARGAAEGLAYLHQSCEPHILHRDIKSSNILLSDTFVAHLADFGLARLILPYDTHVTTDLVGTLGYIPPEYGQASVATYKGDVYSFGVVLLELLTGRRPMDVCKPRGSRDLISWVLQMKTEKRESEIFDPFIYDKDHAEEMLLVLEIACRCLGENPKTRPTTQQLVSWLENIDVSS
# B2: Phytosulfokine receptor 1 (Daucus carota), Q8LPB4 (parent)
# chain: B1 partner
# partner: B1 chain
# Variants of: B1
# Details: with pskr1_dauca PSKR
row,Variant,effect of a mutation on the interaction
1,T62Y,disrupting interaction strength

# Variants of: B2
# Details: with serk2_arath SERK2, Q9XIC7
row,Variant,effect of a mutation on the interaction
1,T629Y,disrupting interaction strength
2,S608Y,disrupting interaction strength
3,F606D,disrupting interaction strength
